Source: patent US20210261648A1 (published 2021)

T1: FcγRIIb extracellular domain with C-terminal His tag (human, UniProt P31994 43-217)
T1 construct: extracellular domain; For crystals it was expressed with kifunensine and trimmed with Endo F1; also called FcgRIIb; FcγRIIb extracellular region
T1 sequence (looked up): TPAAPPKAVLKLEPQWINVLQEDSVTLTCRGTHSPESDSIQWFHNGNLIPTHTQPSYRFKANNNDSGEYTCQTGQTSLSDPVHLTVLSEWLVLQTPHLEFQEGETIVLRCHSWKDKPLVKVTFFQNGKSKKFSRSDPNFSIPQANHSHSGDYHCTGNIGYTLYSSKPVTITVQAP


The binders below were run against T1, FcγRIIb extracellular domain with … (assay: SPR (Biacore)).

| Binder | binding result | binding relative to IL6R-B3/IL6R-L [times] |
| --- | --- | --- |
| IL6R-BP459/IL6R-L (antibody, human IgG1, kappa, name in EU numbering) heavy: QVQLQESGPGLVKPSETLSLTCAVSGHSISHDHAWSWVRQPPGEGLEWIGFISYSGITNYNPSLQGRVTISRDNSKNTLYLQMNSLRAEDTAVYYCARSLARTTAMDYWGEGTLVTVSSASTKGPSVFPLAPSSKSTSGGTAALGCLVKDYFPEPVTVSWNSGALTSGVHTFPAVLQSSGLYSLSSVVTVPSSSLGTQTYICNVNHKPSNTKVDKKVEPKSCDKTHTCPPCPAPDLLGDDSVFLFPPKPKDTLMISRTPEVTCVVVDVAEEDGEVKFNWYVDGVEVHNAKTKPREEQYNSTYRVVSVLTVLHQDWLNGKEYKCKVSNKALPRPIEKTISKAKGQPREPQVYTLPPSRDELTKNQVSLTCLVKGFYPSDIAVEWESNGQPENNYKTTPRVLDSDGSFFLYSKLTVDKSRWQQGNVFSCSVMHEALHNHYTQESLSLSP light: not shown | binds | – |
| IL6R-BP541/IL6R-L (antibody, human IgG1, kappa) heavy: QVQLQESGPGLVKPSETLSLTCAVSGHSISHDHAWSWVRQPPGEGLEWIGFISYSGITNYNPSLQGRVTISRDNSKNTLYLQMNSLRAEDTAVYYCARSLARTTAMDYWGEGTLVTVSSASTKGPSVFPLAPSSKSTSGGTAALGCLVKDYFPEPVTVSWNSGALTSGVHTFPAVLQSSGLYSLSSVVTVPSSSLGTQTYICNVNHKPSNTKVDKKVEPKSCDKTHTCPPCPAPDLLGDDSVFLFPPKPKDTLMISRTPEVTCVVVDVSDEDGEVQFNWYVDGVEVHNAKTKPREEQDNSTYRVVSVLTVLHQDWLNGKEYKCKVSNKALPRPIEKTISKAKGQPREPQVYTLPPSRDELTKNQVSLTCLVKGFYPSDIAVEWESNGQPENNYKTTPPVLDSDGSFFLYSKLTVDKSRWQQGNVFSCSVMHEALHNHYTQESLSLSP light: not shown | binds | – |
| IL6R-BP492/IL6R-L (antibody, human IgG1, kappa) heavy: QVQLQESGPGLVKPSETLSLTCAVSGHSISHDHAWSWVRQPPGEGLEWIGFISYSGITNYNPSLQGRVTISRDNSKNTLYLQMNSLRAEDTAVYYCARSLARTTAMDYWGEGTLVTVSSASTKGPSVFPLAPSSKSTSGGTAALGCLVKDYFPEPVTVSWNSGALTSGVHTFPAVLQSSGLYSLSSVVTVPSSSLGTQTYICNVNHKPSNTKVDKKVEPKSCDKTHTCPPCPAPELLGGDSVFLFPPKPKDTLMISRTPEVTCVVIDVAEEDGEVKFNWYVDGVEVHNAKTKPREEQYNSTYRVVSVLTVLHQDWLNGKEYKCKVSNKALPAPIEKTISKAKGQPREPQVYTLPPSRDELTKNQVSLTCLVKGFYPSDIAVEWESNGQPENNYKTTPPVLDSDGSFFLYSKLTVDKSRWQQGNVFSCSVMHEALHNHYTQESLSLSP light: not shown | – | ≥ 100 |
| IL6R-BP500/IL6R-L (antibody, human IgG1, kappa) heavy: QVQLQESGPGLVKPSETLSLTCAVSGHSISHDHAWSWVRQPPGEGLEWIGFISYSGITNYNPSLQGRVTISRDNSKNTLYLQMNSLRAEDTAVYYCARSLARTTAMDYWGEGTLVTVSSASTKGPSVFPLAPSSKSTSGGTAALGCLVKDYFPEPVTVSWNSGALTSGVHTFPAVLQSSGLYSLSSVVTVPSSSLGTQTYICNVNHKPSNTKVDKKVEPKSCDKTHTCPPCPAPELLGDDSVFLFPPKPKDTLMISRTPEVTCVVIDVAEEDGEVKFNWYVDGVEVHNAKTKPREEQDNSTYRVVSVLTVLHQDWLNGKEYKCKVSNKALPAPIEKTISKAKGQPREPQVYTLPPSRDELTKNQVSLTCLVKGFYPSDIAVEWESNGQPENNYKTTPPVLDSDGSFFLYSKLTVDKSRWQQGNVFSCSVMHEALHNHYTQESLSLSP light: not shown | – | ≥ 100 |
| IL6R-BP493/IL6R-L (antibody, human IgG1, kappa) heavy: QVQLQESGPGLVKPSETLSLTCAVSGHSISHDHAWSWVRQPPGEGLEWIGFISYSGITNYNPSLQGRVTISRDNSKNTLYLQMNSLRAEDTAVYYCARSLARTTAMDYWGEGTLVTVSSASTKGPSVFPLAPSSKSTSGGTAALGCLVKDYFPEPVTVSWNSGALTSGVHTFPAVLQSSGLYSLSSVVTVPSSSLGTQTYICNVNHKPSNTKVDKKVEPKSCDKTHTCPPCPAPELLGGDSVFLFPPKPKDTLMISRTPEVTCVVIDVAEEDGEVKFNWYVDGVEVHNAKTKPREEQDNSTYRVVSVLTVLHQDWLNGKEYKCKVSNKALPAPIEKTISKAKGQPREPQVYTLPPSRDELTKNQVSLTCLVKGFYPSDIAVEWESNGQPENNYKTTPPVLDSDGSFFLYSKLTVDKSRWQQGNVFSCSVMHEALHNHYTQESLSLSP light: not shown | – | ≥ 100 |

Further lines, results first:

| binding result | binding relative to IL6R-B3/IL6R-L [times] | Binder |
| --- | --- | --- |
| binds | – | IL6R-BP465/IL6R-L (antibody, human IgG1, kappa) heavy: QVQLQESGPGLVKPSETLSLTCAVSGHSISHDHAWSWVRQPPGEGLEWIGFISYSGITNYNPSLQGRVTISRDNSKNTLYLQMNSLRAEDTAVYYCARSLARTTAMDYWGEGTLVTVSSASTKGPSVFPLAPSSKSTSGGTAALGCLVKDYFPEPVTVSWNSGALTSGVHTFPAVLQSSGLYSLSSVVTVPSSSLGTQTYICNVNHKPSNTKVDKKVEPKSCDKTHTCPPCPAPDLLGDDSVFLFPPKPKDTLMISRTPEVTCVVVDVSDEDGEVKFNWYVDGVEVHNAKTKPREEQDNSTYRVVSVLTVLHQDWLNGKEYKCKVSNKALPRPIKKTISKAKGQPREPQVYTLPPSRDELTKNQVSLTCLVKGFYPSDIAVEWESNGQPENNYKTTPPVLDSDGSFFLYSKLTVDKSRWQQGNVFSCSVMHEALHNHYTQESLSLSP light: not shown |
| binds | – | IL6R-BP466/IL6R-L (antibody, human IgG1, kappa) heavy: QVQLQESGPGLVKPSETLSLTCAVSGHSISHDHAWSWVRQPPGEGLEWIGFISYSGITNYNPSLQGRVTISRDNSKNTLYLQMNSLRAEDTAVYYCARSLARTTAMDYWGEGTLVTVSSASTKGPSVFPLAPSSKSTSGGTAALGCLVKDYFPEPVTVSWNSGALTSGVHTFPAVLQSSGLYSLSSVVTVPSSSLGTQTYICNVNHKPSNTKVDKKVEPKSCDKTHTCPPCPAPDLLGDDSVFLFPPKPKDTLMISRTPEVTCVVVDVSDEDGEVKFNWYVDGVEVHNAKTKPREEQDNSTYRVVSVLTVLHQDWLNGKEYKCKVSNKALPRPIRKTISKAKGQPREPQVYTLPPSRDELTKNQVSLTCLVKGFYPSDIAVEWESNGQPENNYKTTPPVLDSDGSFFLYSKLTVDKSRWQQGNVFSCSVMHEALHNHYTQESLSLSP light: not shown |
| binds | – | IL6R-BP470/IL6R-L (antibody, human IgG1, kappa) heavy: QVQLQESGPGLVKPSETLSLTCAVSGHSISHDHAWSWVRQPPGEGLEWIGFISYSGITNYNPSLQGRVTISRDNSKNTLYLQMNSLRAEDTAVYYCARSLARTTAMDYWGEGTLVTVSSASTKGPSVFPLAPSSKSTSGGTAALGCLVKDYFPEPVTVSWNSGALTSGVHTFPAVLQSSGLYSLSSVVTVPSSSLGTQTYICNVNHKPSNTKVDKKVEPKSCDKTHTCPPCPAPDLLGDDSVFLFPPKPKDTLMISRTPEVTCVVVDVSDEDGEVKFNWYVDGVEVHNAKTKPREEQDNSTYRVVSVLTVLHQDWLNGKEYKCKVSNKALPRPITKTISKAKGQPREPQVYTLPPSRDELTKNQVSLTCLVKGFYPSDIAVEWESNGQPENNYKTTPPVLDSDGSFFLYSKLTVDKSRWQQGNVFSCSVMHEALHNHYTQESLSLSP light: not shown |
| binds | – | IL6R-BP464/IL6R-L (antibody, human IgG1, kappa, name in EU numbering) heavy: QVQLQESGPGLVKPSETLSLTCAVSGHSISHDHAWSWVRQPPGEGLEWIGFISYSGITNYNPSLQGRVTISRDNSKNTLYLQMNSLRAEDTAVYYCARSLARTTAMDYWGEGTLVTVSSASTKGPSVFPLAPSSKSTSGGTAALGCLVKDYFPEPVTVSWNSGALTSGVHTFPAVLQSSGLYSLSSVVTVPSSSLGTQTYICNVNHKPSNTKVDKKVEPKSCDKTHTCPPCPAPDLLGDDSVFLFPPKPKDTLMISRTPEVTCVVVDVAEEDGEVKFNWYVDGVEVHNAKTKPREEQYNSTYRVVSVLTVLHQDWLNGKEYKCKVSNKALPRPIEKTISKAKGQPREPQVYTLPPSRDELTKNQVSLTCLVKGFYPSDIAVEWESNGQPENNYKTTPYVLDSDGSFFLYSKLTVDKSRWQQGNVFSCSVMHEALHNHYTQESLSLSP light: not shown |
